Reference: patent EP4722231A1 (Shanxi Jinbo Bio-Pharmaceutical Co., Ltd., dated 2025)

Experiments:
Experiment in all cases: cell-based or functional assay
[1] = target: SARS-CoV-2 BA.2.86 S protein (SARS-CoV-2 (BA.2.86 variant))
[2] = target: SARS-CoV-2 Omicron BA.2 S protein (SARS-CoV-2 (BA.2 variant))
[3] = target: SARS-CoV-2 EG.5 S protein (SARS-CoV-2 (EG.5 variant))
[4] = target: SARS-CoV-2 BA.2.75 S protein (SARS-CoV-2 (BA.2.75 variant))
[5] = target: SARS-CoV-2 XBB.1.5 S protein (SARS-CoV-2 (XBB.1.5 variant))

Row | Binder | Inhibitory activity, IC50 (nM), pseudovirus infection of Caco2 cells (luciferase) [1] [nM] | Inhibitory activity, IC50 (nM), pseudovirus infection of Caco2 cells (luciferase) [2] [nM] | Inhibitory activity, IC50 (nM), pseudovirus infection of Caco2 cells (luciferase) [3] [nM] | Inhibitory activity, IC50 (nM), pseudovirus infection of Caco2 cells (luciferase) [4] [nM] | Inhibitory activity, IC50 (nM), pseudovirus infection of Caco2 cells (luciferase) [5] [nM]
1 | Ac-SLDQINVTFLDLEYEMKKLEEAIKKLEESYIDLKEL-NH2 [chemically synthesized polypeptide EK1] | 392 | 228 | 401 | 438 | 291
2 | SLDQINVTFLDLEYEMKKLEEAIKKLEESYIDLKEL [prokaryote-expressed polypeptide reEK1 (recombinant polypeptide HCoV-EK1, TEKB)] | 298 | 354 | 331 | 420 | 137
